Experimental findings from the supplement of paper PMC9170038 are described below.

The data set has as its system MS2 coat protein. Put plainly: apparent KD of MS2 coat protein; designed switch direction (-1 OFF switch, 1 ON switch): -1; higher = weaker reporter binding. The essentials: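 Designed RNA switches with common flanks were transcribed on Illumina chips by stalled E. coli RNA polymerase and titrated with SNAP-549-labelled MS2 coat protein, from 0.7 or 1.5 nM doubling to 3 µM, in Tris-HCl pH 7.5 buffer with KCl, MgCl2, BSA, DTT, tRNA and Tween-20. Steps lasted 0.8–1.5 h (lowest) to 10–20 min (highest). Titrations ran without input, with 200 uM small-molecule ligand, or with an oligonucleotide input. Normalised cluster fluorescence was curve-fitted, and apparent KD is the per-design median over clusters.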

[1] abbreviates: input ligand: microRNA oligo, concentration not stated.
[2] abbreviates: Eterna round: R95, input ligand: microRNA oligo, concentration not stated.

For “AUUUAACAUGAGGAUCACCCAUGUGAGGAUAUGCGAGUGUAGACUUCGGUCUGAUAGAGCAGAAGGCGCAGAUA [EX1 #9] (Eterna round: R97, puzzle: Exclusion 1)”, the “apparent KD of MS2 coat protein” value reads like this: (input ligand: FMN 200 uM) 48.6 nM; (input ligand: none) 45 nM.

Turning to “AUUUAAUUUAAUAAGAUCACAUGAGGAUCACCCAUGUUAUAAUAGGAUAUCAGCUCGAUUAGAGCUGAGAAGGAUUAUAACAUG [ExNG3/9-A1] (Eterna round: R96, puzzle: Exclusion NG 3)”, the “apparent KD of MS2 coat protein” value is, setting by setting: (input ligand: FMN 200 uM) 35.3 nM; under setting [1], 20.1 nM; (input ligand: none) 28.8 nM.

“AUUUAGAGAGGAUAUAUUAUGUGAAACAUGAGGAUCACCCAUGUAAUAUGAUGGAUAUAAAUAGAAGGCUCAUUUA [Mat - Exclusion 5 - JL mod - D24] (puzzle: Exclusion 5)”: under setting [2], the “apparent KD of MS2 coat protein” value is 32.3 nM.

Turning to “AUUUAUGGAGGAUAUACUUGAGGAUCACCCAAGUGGAGUCCCAAAUGGGCGGUAAAUAGUAGAAGGCCGUCUUA [jl-ex3-4.49 ViennaUCT mod] (Eterna round: R97, puzzle: Exclusion 3)”, the “apparent KD of MS2 coat protein” value (input ligand: FMN 200 uM) was 17.2 nM and the “apparent KD of MS2 coat protein” value (input ligand: none) turned out to be 16.5 nM.

Turning to “AUUUUGUCAGGAUAUUAGUAGUAAAUGAAUAAAAUUAUUACUGAGAAGGGACAUGAGGAUCACCCAUGUGUCUU [Mat - Exclusion 4 - Eli Mod - D9] (Eterna round: R97, puzzle: Exclusion 4)”, the “apparent KD of MS2 coat protein” value is, setting by setting: (input ligand: FMN 200 uM) 24.1 nM; (input ligand: none) 23 nM.

On to “AUUUUGUGAGGAUAUUAGUUGUAGAAAAUUGUUAGUAUAGCUGAGAAGGCACAUGAGGAUCACCCAUGUAAAUC [JR_Ex4_Sub042] (Eterna round: R97, puzzle: Exclusion 4)”, for which the “apparent KD of MS2 coat protein” value (input ligand: FMN 200 uM) is 91 nM and the “apparent KD of MS2 coat protein” value (input ligand: none) amounted to 19 nM.

On to “CAAAACAGAGGAUAUACAUUUCCUCACCGCCAAAUGGCGGAACAUGAGGAUCACCCAUGUAGAAGGCUGGAAAA [Gesous] (puzzle: Exclusion 2)”, for which the “apparent KD of MS2 coat protein” value was 292 nM (Eterna round: R95, input ligand: FMN 200 uM); 114 nM under setting [2]; 118 nM (Eterna round: R95, input ligand: none).

As to “CAAACCUCAGGAUAUCGAGACUCGGACAUGAGGAUCACCCAUGUGAGGCUCGUGAGUCCACGAGAAGGGAGGAGCA [Eternabot (Original) Solution 38] (Eterna round: R97, puzzle: Exclusion 5)”, the “apparent KD of MS2 coat protein” value was 26.1 nM (input ligand: FMN 200 uM) and 17.4 nM (input ligand: none).

In the case of “CAAAUCUGAGGAUAUCGAUAUUUGUACAUGAGGAUCACCCAUGUCCUAUUUAUUAUAUUUCGAGAAGGCAGUGUAU [JR_E5_Sub094] (puzzle: Exclusion 5)”, the “apparent KD of MS2 coat protein” value under setting [2] is 19.2 nM.

On to “CAACAUGAGGAUCACCCAUGUGGCCCUACGUGCUGGCUCGGGCAGGAUAUUAACCAAUGAGUAGUUAAGAAGGGCUCGCAAGUA [Eternabot solution 14] (Eterna round: R96, puzzle: Exclusion NG 3)”, for which the “apparent KD of MS2 coat protein” value runs as follows: (input ligand: FMN 200 uM) 223 nM; under setting [1], 40.6 nM; (input ligand: none) 76.6 nM.

On to “CAAGAACAGGUCAGGAUAUGGCAAAUAAAUAACAACCAGAAGGGACUUGAGGAUCACCCAAGUUUAGAAGGGUA [Tebeorus] (Eterna round: R97, puzzle: Brourd's mod of Exclusion 4)”, for which the “apparent KD of MS2 coat protein” value (input ligand: FMN 200 uM) was determined as 221 nM and the “apparent KD of MS2 coat protein” value (input ligand: none) was found to be 39.4 nM.

Turning to “CAAGCCUGAACGGCCGCUCACAUGAGGAUCACCCAUGUCACCUGUGCUAGAGGACCACAUUAAUCGCUUCGUCUUGG [Eternabot (L1) Solution 7] (Eterna round: R97, puzzle: Sensor, turn-off variant 1)”, the “apparent KD of MS2 coat protein” value came out at 69.8 nM (input ligand: FMN 200 uM) and 88.9 nM (input ligand: none).

For the sequence “CAAUUAAUUAAUUAAUAAUACAUGAGGAUCACCCAUGUAGAUCCUACAUACAAGCUAAGUAGCUCGUCUUAUAAUUA [Stov1/2-A3] (Eterna round: R97, puzzle: Sensor, turn-off variant 1)”, the “apparent KD of MS2 coat protein” value was 417 nM (input ligand: FMN 200 uM) and 625 nM (input ligand: none).

Consider “CACAAUGACGUCAGGAUAUGUAAACAGCGAAGUUUGUAGAAGGGACAUGAGGAUCACCCAUGUAUAACUGGGAG [Eternabot (L2) Solution 27] (Eterna round: R97, puzzle: Brourd's mod of Exclusion 4)”, for which the “apparent KD of MS2 coat protein” value (input ligand: FMN 200 uM) turned out to be 220 nM and the “apparent KD of MS2 coat protein” value (input ligand: none) was 149 nM.

On to “CACCGUUACUGAGGAUAUCUUACAUGAGGAUCACCCAUGUAAUAAAUGAGAAUUUCGGAUGUAUUAGAGAAGGCAGAAAUCGGC [Ostricism 61 - Jieux - Exclusion NG 2] (Eterna round: R96, puzzle: Exclusion NG 2)”, for which the “apparent KD of MS2 coat protein” value (input ligand: FMN 200 uM) came to 22.6 nM, the “apparent KD of MS2 coat protein” value under setting [1] was found to be 16.3 nM and the “apparent KD of MS2 coat protein” value (input ligand: none) is 23.9 nM.

For the sequence “CACCUGAAAGGAGGAUAUCUUACAUGAGGAUCACCCAUGUAAUAAAUGAGAAUUUCGAAUGUAAUAGAGAAGGCCUGAAAAGGC [Ostracism 85 - Jieux - Exclusion NG 2] (Eterna round: R96, puzzle: Exclusion NG 2)”, the “apparent KD of MS2 coat protein” value by setting is: (input ligand: FMN 200 uM) 30.6 nM; under setting [1], 25 nM; (input ligand: none) 34.4 nM.

Regarding “CACCUGAAGAGAGGAUAUCAUACAUGAGGAUCACCCAUGUAAUAAAUGAGAAUUUCGAAUGUAAUUGAGAAGGCUCAAUAAGGC [Ostricism 95 - Jieux - Exclusion NG 2] (Eterna round: R96, puzzle: Exclusion NG 2)”, the “apparent KD of MS2 coat protein” value is, setting by setting: (input ligand: FMN 200 uM) 82.9 nM; under setting [1], 33 nM; (input ligand: none) 47.9 nM.

As to “CACGCAUCAGGAUAUACAUGAGGAUCACCCAUGUGUUCCAGCUAGGAAACUAGCAAAUGUAGAAGGGAUGCGUG [Mat - Exclusion 3 - JL Mod - D7] (Eterna round: R97, puzzle: Exclusion 3)”, the “apparent KD of MS2 coat protein” value is, setting by setting: (input ligand: FMN 200 uM) 727 nM; (input ligand: none) 208 nM.

Consider “CACUUGGCAGGAUAUGCAAUUUUAGACAUGAGGAUCACCCAUGUGAUCAUUCCAUAUUAUGCAGAAGGGCCUAAAC [JR_E5_Sub050] (puzzle: Exclusion 5)”, for which the “apparent KD of MS2 coat protein” value under setting [2] is 214 nM.

As for “CAGCUGUCAGGAUAUCGUGCAUACAACGAAAGUUCUAUGUGCGAGAAGGGACAUGAGGAUCACCCAUGUUAACG [Omei Ex4 A25] (Eterna round: R97, puzzle: Exclusion 4)”, the “apparent KD of MS2 coat protein” value is 58 nM (input ligand: FMN 200 uM) and 46 nM (input ligand: none).

Consider “CAGGAAGCGGAGGAUAUGAUGAAAACUCGGCAAUCAGAAGGCCGCACAUGAGGAUCACCCAUGUCGCAAAUACC [Eternabot (Original) Solution 36] (Eterna round: R97, puzzle: Exclusion 6)”, for which the “apparent KD of MS2 coat protein” value (input ligand: FMN 200 uM) was 16.6 nM and the “apparent KD of MS2 coat protein” value (input ligand: none) was 15.3 nM.

On to “CAGGAUAGAGGAUAUACGUAGAUACAGAUUCAUGUAAUCCUACAUGAGGAUCACCCAUGUAGAAGGCUAUCCUG [Fiskers Ex 2 - 18] (puzzle: Exclusion 2)”, for which, under setting [2], the “apparent KD of MS2 coat protein” value amounted to 17.6 nM.

In the case of “CAGGGCGCAGGAUAUAUCACAAUGCACAUGAGGAUCACCCAUGUCAUCCUCGCGCUUGAGAUAGAAGGGUGAAACC [Eternabot (L1) Solution 65] (Eterna round: R97, puzzle: Exclusion 5)”, the “apparent KD of MS2 coat protein” value runs as follows: (input ligand: FMN 200 uM) 21.1 nM; (input ligand: none) 23.7 nM.

In the case of “CAGUACGGAGGAUAUACAUGAGGAUCACCCAUGUACGCGGGUGUCACUGGGAGAACUUGUAGAAGGCCGAGUCC [Eternabot (L1) Solution 8] (Eterna round: R97, puzzle: Exclusion 3)”, the “apparent KD of MS2 coat protein” value came out at 196 nM (input ligand: FMN 200 uM) and 107 nM (input ligand: none).

On to “CAGUACUGAGGAUAUACAUGAGGAUCACCCAUGUGAGAGAUACUAAUGAGGUCGAUUAGUAGAAGGCAGUACUG [Mat X3R4 m4] (Eterna round: R97, puzzle: Exclusion 3)”, for which the “apparent KD of MS2 coat protein” value (input ligand: FMN 200 uM) amounted to 240 nM and the “apparent KD of MS2 coat protein” value (input ligand: none) is 17.5 nM.

For “CAGUACUGAGGAUAUACAUGAGGAUCACCCAUGUGAUUUAGUGCACGCGUACGUGUACGUAGAAGGCAGUACUG [JL 3.27 m1] (Eterna round: R97, puzzle: Exclusion 3)”, the “apparent KD of MS2 coat protein” value runs as follows: (input ligand: FMN 200 uM) 182 nM; (input ligand: none) 20.8 nM.

As to “CAGUACUGAGGAUAUACAUGAGGAUCACCCAUGUGGAGAGGAAAAGGAAGAAAAGAAGGUAGAAGGCGGUGCUG [JR_Ex3_Sub042] (Eterna round: R97, puzzle: Exclusion 3)”, the “apparent KD of MS2 coat protein” value (input ligand: FMN 200 uM) was 196 nM and the “apparent KD of MS2 coat protein” value (input ligand: none) was determined as 40.8 nM.

Consider “CAGUACUGAGGAUAUACAUGAGGAUCACCCAUGUGUACCAGCUAGGAAACUAGCAAAAGUAGAAGGCAGUACUG [828 mod 2 m10] (Eterna round: R97, puzzle: Exclusion 3)”, for which the “apparent KD of MS2 coat protein” value is, setting by setting: (input ligand: FMN 200 uM) 32.6 nM; (input ligand: none) 14.9 nM.

Take “CAGUACUGAGGAUAUACAUGAGGAUCACCCAUGUGUGUGAGAAAAUUAAUAAAAGAAUGUAGAAGGCGGUGCUG [JR_Ex3_Sub041] (Eterna round: R97, puzzle: Exclusion 3)”: the “apparent KD of MS2 coat protein” value was determined as 645 nM (input ligand: FMN 200 uM) and 357 nM (input ligand: none).

“CAGUACUGAGGAUAUACAUGAGGAUCACCCAUGUGUUCCAGCUAGGAAACUAGCAAUAGUAGAAGGCAGUACUG [salish99_ex3_r3_090x] (Eterna round: R96, puzzle: Exclusion 3)”: the “apparent KD of MS2 coat protein” value (input ligand: FMN 200 uM) turned out to be 417 nM, the “apparent KD of MS2 coat protein” value under setting [1] came to 19.1 nM and the “apparent KD of MS2 coat protein” value (input ligand: none) amounted to 23.2 nM.

With “CAGUACUGAGGAUAUACAUGAGGAUCACCCAUGUGUUCCAGCUAGGAAACUAGCAAUAGUAGAAGGCAGUACUG [salish99_ex3_r3_090x] (puzzle: Exclusion 3)”, the “apparent KD of MS2 coat protein” value under setting [2] is 21.3 nM.
